Measurements reported in US10874712B2, “Methods, compounds and compositions for modulating blood brain barrier integrity and re-myelination” (University Health Network, priority 2015, dated 2020).

Columns and labels:
[1] = sRGMc level in sera of treated mice by ELISA; assay type: in vivo, mouse
Procedure: Blood collected from the saphenous veins of mice induced with EAE at 0, 5, 10, 18 and 30 days in Microvette® CB300 capillary tubes (Starstedt) was spun down at 2000 rcf for 10 min and stored at −80° C. sRGMa and sRGMc in the sera were detected using ELISA kits for sRGMa (MRGMAO, R&D) and sRGMc (MRGMCO, R&D) according to manufacturer's instructions.
To ensure that over-expression of sRGMc was efficient, sera from 3 RGMc-treated mice were collected and compared to 3 vehicle-treated mice at 24 h post-treatment by ELISA. […] The mice were then observed and scored twice daily at 12 h intervals for 18 days. […] Whether intra-peritoneal (i.p) injections of RGMc could overcome the transient effects observed with intravenous administration of this protein was explored. […] Next the levels of RGMc in the sera of sham-treated animals and mice induced with EAE at day 10 as well as in EAE animals (day 10) that were injected with RGMc were analyzed. […] Thus, EAE reduced RGMc levels and over-expression of sRGMc in EAE-induced mice is beneficial in reducing the incidence and the severity as well as delaying the onset of disease.

[2] = tested on: b.end3 cells; experiment: In vitro BBB permeability, Dextran-FITC extravasation in Boyden chamber; assay type: cell-based, mouse; settings: b.end3 monolayer; 4 h pre-treatment (10 μg/mL sRGMc, 10 μg/mL C3 Transferase or 10 μM Y27632), then RGMa 18 h
Procedure: (A) Neogenin expression was analyzed on the membrane of b.end3 cells using immunohistochemical staining and by Western blot. (B) Crystal violet staining showing the b.end3 cell monolayer, (C) Representative diagram of the boyden chamber set up and (D) BBB permeability in b.end3 cells. Serum-starved cells were incubated for 4 h with RGMa (10 μg/ml), C3 Transferase (10 μg/mL) or Y27632 (10 μM) or sRGMc (10 μg/mL) and were then incubated with sRGMa (5 μg/mL) for 18 h followed by seeding of Dextran-FITC onto the upper chamber. Extravasation was measured over a period of 60 min as described in the Examples. n=3, performed in triplicates.
b.End3 endothelial cells were used to generate an in vitro model of the human EC barrier lining the choroid plexus. Briefly, b.end3 cells were plated on polyethylene-coated 0.4 μm pore size Boyden chambers (Corning) at a density of 2×10^5 cells per well in DMEM, and were allowed to grow for 72 h to reach confluency (verified using crystal violet staining). After 72 h, cells were serum starved for 6 h and pre-treated for 4 h with 10 μg/mL sRGMc, 10 μg/mL C3 Transferase or 10 μM Y27632. RGMa was then added to the wells for 18 h. The transwells were then transferred to a new plate containing 500 μl of HBSS and 200 μl 4-KDa Dextran-FITC (25 mg/ml; Sigma-Aldrich) was added to the upper chambers. Tracer diffusion across the EC monolayer was assessed in 30 min intervals for a period of 1.5 h. FITC signal, which represented the amount of extravasation through the monolayer was analyzed with using a microplate reader.

[3] = tested on: rats subjected to MCAO; experiment: Middle Cerebral Artery Occlusion (MCAO), Evans Blue BBB integrity; assay type: in vivo, rat; settings: daily tail vein injection of 70 μg, seven days following MCAO
Procedure: The possibility that RGMc may also restore BBB integrity following stroke was also tested. Middle Cerebral Artery Occlusion (MCAO) was performed in rats, which were treated with a daily tail vein injection of 70 μg of RGMc or PBS (control). Seven days following MCAO, animals received injection of Evans blue to monitor BBB integrity (FIG. 24). To measure BBB integrity, the amount of Evans Blue Dye/g of brain tissue was measured. […] This effect was also quantitated: brains were homogenized and the amount of Evans Blue quantified per gram of wet brain (FIG. 24, B).

[4] = tested on: mouse cerebellar organotypic cultures; experiment: Remyelination in lysolecithin-demyelinated cerebellar organotypic cultures (MBP staining); assay type: cell-based; settings: sRGMc 500 ng/ml for 14 days after lysolecithin
Procedure: To assess the ability of sRGMc to function as a remyelinating agent, its function in in vitro cerebellar explant cultures was investigated. Briefly, cultures were demyelinated using lysolecithin, a detergent, and then cultured in the presence of sRGMc for 14 days.
Myelination-demyelination-remyelination studies were performed in mouse cerebellar organotypic cultures. The cerebella of postnatal 6 day old pups were dissected and sectioned at 400 μm thickness using vibratome. Cerebellar sections were then plated on insert plates (Corning, Wilkes Barre, Pa.) and allowed to attach. Media was replaced every 2-3 days and cultures were maintained for 7 days. To induce demyelination, 0.5 mg/ml lysolecithin (1′-monoacyl-1-3-glycerylphosphorylcholine; Sigma) was added to the culture medium for 18 hr, after which it was removed and replaced with fresh medium containing sRGMc (500 ng/ml) or control protein and the cultures maintained for 14 more days. Media was replaced every 2-3 days. Demyelination-remyelination was assessed by staining explants with myelin basic protein antibody MBP (Cell Signaling).

[5] = tested on: EAE-induced mice; experiment: Immunohistochemistry of spinal cord for CD3, B220, CD11b infiltrates; assay type: in vivo, mouse; settings: EAE day 18; vs vehicle
Procedure: Spinal cords were isolated and post-fixed with 4% PFA overnight at 4° C., washed 3× with PBS and soaked in 30% sucrose in PBS for 48 h. Tissues were then embedded in Optimal Cutting Temperature (OCT) compound. Frozen sections of spinal cords were cut at 10-30 μm with a cryostat, mounted on gelatinized slides, dried for 2 h and stored at −80° C. Sections were then re-hydrated in PBS for 5 min and permeabilized with PBST (0.3% Triton X-100 in PBS) for 5 min. The tissues were then blocked (PBS, 0.3% Triton X-100, 3% FBS) for 1 h at room temperature and incubated with the following primary antibodies overnight at 4° C. in a humidified chamber: anti-CD3 (145-2C11, BioLegend); CD11b (M1/70, BioLegend); B220 (RA3-6B2, BioLegend), DAPI (MMS-435P, Sigma), Fibrinogen (D9542, Innovative Research).

B1: sRGMc: truncated form of RGMc with the GPI anchor sequence removed, released as a soluble protein (SEQ ID NOs: 1 and 3) (protein, listed as Homo sapiens)
chain: CKILRCNAEYVSSTLSLRGGGSSGALRGGGGGGRGGGVGSGGLCRALRSYALCTRRTARTCRGDLAFHSAVHGIEDLMIQHNCSRQGPTAPPPPRGPALPGAGSGLPAPDPCDYEGRFSRLHGRPPGFLHCASFGDPHVRSFHHHFHTCRVQGAWPLLDNDFLFVQATSSPMALGANATATRKLTIIFKNMQECIDQKVYQAEVDNLPVAFEDGSINGGDRPGGSSLSIQTANPGNHVEIQAAYIGTTIIIRQTAGQLSFSIKVAEDVAMAFSAEQDLQLCVGGCPPSQRLSRSERNRRGAITIDTARRLCKEGLPVEDAYFHSCVFDVLISGDPNFTVAAQAALEDARAFLPDLEKLH
[1]; 24 h post-treatment, ELISA, 3 mice per group
  increase in sRGMc levels in sera compared to vehicle-treated animals: 3 fold
[1]; EAE day 10, compared to sham-treated animals
  RGMc levels in sera of EAE mice after RGMc injection: restored
[1]; ELISA, FIG. 4F
  stability of sRGMc treatment in serum: stable for 24 h post treatment
[2]
  extravasation of Dextran-FITC in sRGMa-treated cells: reproduced the RhoA/RhoK inhibitor effect
[3]
  reduction in Evans Blue levels in the brain compared to PBS-treated animals: 3 fold
[3]; vs control
  Evans Blue extravasation into the CNS, visual inspection: strongly reduced
[4]
  remyelination (myelin basic protein staining): promote remyelination
[5]
  infiltration of B220+ cells into cervical spinal cords: significantly reduced
  infiltration of CD3+ cells into cervical spinal cords: significantly reduced
  infiltration of Cd11b+ cells into cervical spinal cords: significantly reduced
